The record followed here is paper PMC5373536, “Proteomic analysis of organic sulfur compound utilisation in Advenella mimigardefordensis strain DPN7^T” (PLoS ONE, 2017).

Substrate in this data set: O=C(O)CC(S)C(=O)O
In words: oxygen consumption, oxygen electrode, nonlinear regression. It is filed as biochemical, Advenella mimigardefordensis. The following applies: 100 mM Tris/HCl pH 7.4, 0.05-75 mM MS, 2 ug/ml enzyme, O2 co-substrate.

B1: MsdoDPN7 (MsdoAm; MIM_c37420) (Advenella mimigardefordensis DPN7) (protein)
chain: MTSKQDKQVAIRQFIDITKDIDSAQLDREKLAKIRDALVGIAAHKEWWGQDLYPAPTGDELQARYLIHAEPDNSYALYLNVMKPGKKIVPHNHTTWACIAAVEGVESNYLYERTDDGSVPGHATVVQTGMQAVEPGHGIALMPDDIHAVRIEDDNIRHLHMYGRALETLTERMAFDTSNNTCKIMDVGVKTQRSKG
notes: full gene in pET-19b (NdeI/XhoI), N-terminal His tag, expressed in E. coli BL21(DE3) pLysS, Ni-NTA purified; tag removal not mentioned
B1: the Km – broadly, the substrate concentration at which the rate is half of its maximum – turned out to be 200 µM.
